Eleven molecules from patent US20140038895A1 (UNIVERSITY OF QUEENSLAND, published 2014) can be followed below.

Where no end group is shown, it is not given here.

Assay [1] concerns the target T1, human RXFP3 (human, UniProt Q9NSD7 1-469).
T1 construct: whole, on cells; also called GPCR135; RXFP3 receptor
T1 sequence (looked up): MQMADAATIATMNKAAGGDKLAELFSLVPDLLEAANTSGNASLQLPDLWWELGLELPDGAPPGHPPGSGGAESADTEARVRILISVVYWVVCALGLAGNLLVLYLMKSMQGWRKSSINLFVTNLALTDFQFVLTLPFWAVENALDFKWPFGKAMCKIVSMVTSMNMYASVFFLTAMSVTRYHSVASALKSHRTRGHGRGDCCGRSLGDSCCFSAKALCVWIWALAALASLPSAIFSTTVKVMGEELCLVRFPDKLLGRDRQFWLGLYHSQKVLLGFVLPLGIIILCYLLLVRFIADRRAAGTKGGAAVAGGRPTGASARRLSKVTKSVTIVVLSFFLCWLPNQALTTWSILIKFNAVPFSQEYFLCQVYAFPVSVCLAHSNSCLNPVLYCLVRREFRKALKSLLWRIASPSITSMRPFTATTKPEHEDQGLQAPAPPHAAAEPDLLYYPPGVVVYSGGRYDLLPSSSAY
Briefly: competition binding vs Eu-DTPA-R3/I5 on HEK-293T cells stably expressing human RXFP3, time-resolved fluorescence, n = 3.
Method: (§1) Binding assays were carried out as follows. […] The cells were incubated at room temperature for 60 min before the peptide solution was aspirated off and the cells washed with PBS.

A further assay has as its target T2, human RXFP1 (human, UniProt Q9HBX9 1-757).
T2 construct: whole, on cells; also called LGR7; RXFP1 receptor
T2 sequence (looked up): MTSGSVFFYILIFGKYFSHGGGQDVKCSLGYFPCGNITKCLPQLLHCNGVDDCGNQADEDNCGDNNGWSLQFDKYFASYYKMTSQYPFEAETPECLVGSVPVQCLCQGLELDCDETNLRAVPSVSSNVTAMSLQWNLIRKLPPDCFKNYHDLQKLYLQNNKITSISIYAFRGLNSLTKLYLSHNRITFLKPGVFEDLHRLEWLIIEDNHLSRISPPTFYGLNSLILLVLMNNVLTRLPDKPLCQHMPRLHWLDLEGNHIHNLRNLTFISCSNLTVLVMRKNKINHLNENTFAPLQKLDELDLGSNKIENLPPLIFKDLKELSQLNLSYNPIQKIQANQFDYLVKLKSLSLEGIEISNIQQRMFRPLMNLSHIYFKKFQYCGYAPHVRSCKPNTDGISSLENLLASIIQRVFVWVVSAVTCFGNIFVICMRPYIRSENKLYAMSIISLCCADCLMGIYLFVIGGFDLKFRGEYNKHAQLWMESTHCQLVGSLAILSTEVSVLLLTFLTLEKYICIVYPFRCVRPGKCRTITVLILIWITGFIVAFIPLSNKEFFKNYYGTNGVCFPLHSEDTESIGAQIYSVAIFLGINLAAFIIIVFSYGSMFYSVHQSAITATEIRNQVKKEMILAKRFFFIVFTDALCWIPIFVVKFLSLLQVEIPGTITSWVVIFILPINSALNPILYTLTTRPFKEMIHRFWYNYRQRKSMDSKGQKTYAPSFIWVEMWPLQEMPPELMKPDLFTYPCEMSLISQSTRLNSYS
Kind of assay: competition binding vs Eu-DTPA-H2 relaxin on HEK-293T cells transfected with RXFP1 (FIG. 7).

The target of assay [2] is T1, human RXFP3. Kind of assay: competition binding vs Eu-DTPA-R3/I5 on HEK-293T cells expressing human RXFP3 (Table 2 cell: 'No activity').
Method: as §1

Method for human RXFP1: as §1

B1: H3 B1-22R (peptide)
peptide: RAAPYGVRLSGREFIRAVIFTSR-NH2
notes: Synthetic single chain peptide; also called R3 B1-22R; R3 1-22R
The pIC50 is the IC50 on a negative log10 scale, so that one unit is a factor of ten. Read a low pIC50 as a high IC50. For the molecule B1, the pIC50 with human RXFP3 [1] turned out to be 7.75. In addition, in the assay with human RXFP1, the binding result is reported as “binds”.
Molecule RAAPYGVRLAGREFIRAVIFTAR-NH2 (Synthetic single chain peptide) [H3 B1-22R C10/22A] displayed a pIC50 with human RXFP3 [1] of 6.83.
Regarding PYGVRLSGREFIRAVIFTSR-NH2 (Synthetic single chain peptide) [H3 B4-22R], in the assay with human RXFP3 [1], the pIC50 was 6.66.
In turn, GVRLSGREFIRAVIFTSR-NH2 (Synthetic single chain peptide) [H3 B6-22R] yielded a pIC50 in the assay with human RXFP3 [1] of 6.33.
For the molecule RAAPYGVRLSGREFIRAVIFTS-NH2 (Synthetic single chain peptide) [H3 B1-22], the binding result with human RXFP3 [2] is given as “no binding”.
On to APYGVRLSGREFIRAVIFTSR-NH2 (Synthetic single chain peptide) [H3 B3-22R], for which the pIC50 with human RXFP3 [1] was 6.71.
As for VRLSGREFIRAVIFTSR-NH2 (Synthetic single chain peptide) [H3 B7-22R], the binding result in the assay with human RXFP3 [2] is recorded as “no binding”.
Take RAAPYGVRLSGREFIRAVIFTSR-OH (Synthetic single chain peptide) [H3 B1-22R Acid]: the pIC50 with human RXFP3 [1] was 6.46.
The molecule AAPYGVRLSGREFIRAVIFTSR-NH2 (Synthetic single chain peptide) [H3 B2-22R] yielded a pIC50 in the assay with human RXFP3 [1] of 7.06.

B2: H3 B-chain C10/22S (peptide)
peptide: RAAPYGVRLSGREFIRAVIFTSGGSRW-OH
notes: Synthetic single chain peptide; also called H3 relaxin B chain; native H3 B chain
In turn, B2 gave a pIC50 with human RXFP3 [1] of 5.6.
In turn, YGVRLSGREFIRAVIFTSR-NH2 (Synthetic single chain peptide) [H3 B5-22R] registered a negative-log IC50 (pIC50) with human RXFP3 [1] of 6.37.
